# Assay results published in publication PMC12416549 (2024).
# T1: TNFR1 (Homo sapiens, UniProt P19438)
# T1 chain: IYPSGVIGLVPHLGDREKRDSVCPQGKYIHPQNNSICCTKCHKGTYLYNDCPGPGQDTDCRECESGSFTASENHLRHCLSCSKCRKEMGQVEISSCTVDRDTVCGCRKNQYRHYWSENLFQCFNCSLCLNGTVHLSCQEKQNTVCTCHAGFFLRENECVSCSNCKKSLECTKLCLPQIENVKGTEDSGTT
# Target: T1, TNFR1
# Assay: yeast display SC50
row,Binder,apparent Kd (screen) [nM]
1,Y101K (designed binder) SMEEEVEKAAKEYEKKKKEAIEKHLEKLKAKDKEAAERFLKELEEAAKEYAKDEAKTMSEEEAKRRAKKYKEKVLLSELSEEEQKEIKEAEEKLVRTILKKVEEAAK,0.446
2,K56F (designed binder) SMEEEVEKAAKEYEKKKKEAIEKHLEKLKAKDKEAAERFLKELEEAAKEYAKDEAFTMSEEEAKRRAKKYKEKVLLSELSEEEQKEIKEAEEKLVRTILKYVEEAAK,3.63
3,E104K (designed binder) SMEEEVEKAAKEYEKKKKEAIEKHLEKLKAKDKEAAERFLKELEEAAKEYAKDEAKTMSEEEAKRRAKKYKEKVLLSELSEEEQKEIKEAEEKLVRTILKYVEKAAK,0.446
4,K52N (designed binder) SMEEEVEKAAKEYEKKKKEAIEKHLEKLKAKDKEAAERFLKELEEAAKEYANDEAKTMSEEEAKRRAKKYKEKVLLSELSEEEQKEIKEAEEKLVRTILKYVEEAAK,0.869
5,M2D (designed binder) SDEEEVEKAAKEYEKKKKEAIEKHLEKLKAKDKEAAERFLKELEEAAKEYAKDEAKTMSEEEAKRRAKKYKEKVLLSELSEEEQKEIKEAEEKLVRTILKYVEEAAK,0.446
6,Y13G (designed binder) SMEEEVEKAAKEGEKKKKEAIEKHLEKLKAKDKEAAERFLKELEEAAKEYAKDEAKTMSEEEAKRRAKKYKEKVLLSELSEEEQKEIKEAEEKLVRTILKYVEEAAK,2.48
7,M2Y (designed binder) SYEEEVEKAAKEYEKKKKEAIEKHLEKLKAKDKEAAERFLKELEEAAKEYAKDEAKTMSEEEAKRRAKKYKEKVLLSELSEEEQKEIKEAEEKLVRTILKYVEEAAK,0.49
8,E49G (designed binder) SMEEEVEKAAKEYEKKKKEAIEKHLEKLKAKDKEAAERFLKELEEAAKGYAKDEAKTMSEEEAKRRAKKYKEKVLLSELSEEEQKEIKEAEEKLVRTILKYVEEAAK,9.41
9,I21Q (designed binder) SMEEEVEKAAKEYEKKKKEAQEKHLEKLKAKDKEAAERFLKELEEAAKEYAKDEAKTMSEEEAKRRAKKYKEKVLLSELSEEEQKEIKEAEEKLVRTILKYVEEAAK,0.49
10,E81S (designed binder) SMEEEVEKAAKEYEKKKKEAIEKHLEKLKAKDKEAAERFLKELEEAAKEYAKDEAKTMSEEEAKRRAKKYKEKVLLSELSSEEQKEIKEAEEKLVRTILKYVEEAAK,0.79
11,K18A (designed binder) SMEEEVEKAAKEYEKKKAEAIEKHLEKLKAKDKEAAERFLKELEEAAKEYAKDEAKTMSEEEAKRRAKKYKEKVLLSELSEEEQKEIKEAEEKLVRTILKYVEEAAK,0.79
12,A35Q (designed binder) SMEEEVEKAAKEYEKKKKEAIEKHLEKLKAKDKEQAERFLKELEEAAKEYAKDEAKTMSEEEAKRRAKKYKEKVLLSELSEEEQKEIKEAEEKLVRTILKYVEEAAK,0.869
13,T97C (designed binder) SMEEEVEKAAKEYEKKKKEAIEKHLEKLKAKDKEAAERFLKELEEAAKEYAKDEAKTMSEEEAKRRAKKYKEKVLLSELSEEEQKEIKEAEEKLVRCILKYVEEAAK,0.79
14,E34D (designed binder) SMEEEVEKAAKEYEKKKKEAIEKHLEKLKAKDKDAAERFLKELEEAAKEYAKDEAKTMSEEEAKRRAKKYKEKVLLSELSEEEQKEIKEAEEKLVRTILKYVEEAAK,0.718
15,E60I (designed binder) SMEEEVEKAAKEYEKKKKEAIEKHLEKLKAKDKEAAERFLKELEEAAKEYAKDEAKTMSIEEAKRRAKKYKEKVLLSELSEEEQKEIKEAEEKLVRTILKYVEEAAK,0.49

# Results, then the binder that gave them:
row,apparent Kd (screen) [nM],Binder
1,0.956,E44A (designed binder) SMEEEVEKAAKEYEKKKKEAIEKHLEKLKAKDKEAAERFLKELAEAAKEYAKDEAKTMSEEEAKRRAKKYKEKVLLSELSEEEQKEIKEAEEKLVRTILKYVEEAAK
2,4.83,A63I (designed binder) SMEEEVEKAAKEYEKKKKEAIEKHLEKLKAKDKEAAERFLKELEEAAKEYAKDEAKTMSEEEIKRRAKKYKEKVLLSELSEEEQKEIKEAEEKLVRTILKYVEEAAK
3,5.31,I98M (designed binder) SMEEEVEKAAKEYEKKKKEAIEKHLEKLKAKDKEAAERFLKELEEAAKEYAKDEAKTMSEEEAKRRAKKYKEKVLLSELSEEEQKEIKEAEEKLVRTMLKYVEEAAK
4,1.16,L94Q (designed binder) SMEEEVEKAAKEYEKKKKEAIEKHLEKLKAKDKEAAERFLKELEEAAKEYAKDEAKTMSEEEAKRRAKKYKEKVLLSELSEEEQKEIKEAEEKQVRTILKYVEEAAK
5,6.43,E92Q (designed binder) SMEEEVEKAAKEYEKKKKEAIEKHLEKLKAKDKEAAERFLKELEEAAKEYAKDEAKTMSEEEAKRRAKKYKEKVLLSELSEEEQKEIKEAEQKLVRTILKYVEEAAK
6,2.73,H24I (designed binder) SMEEEVEKAAKEYEKKKKEAIEKILEKLKAKDKEAAERFLKELEEAAKEYAKDEAKTMSEEEAKRRAKKYKEKVLLSELSEEEQKEIKEAEEKLVRTILKYVEEAAK
7,20.2,R66A (designed binder) SMEEEVEKAAKEYEKKKKEAIEKHLEKLKAKDKEAAERFLKELEEAAKEYAKDEAKTMSEEEAKRAAKKYKEKVLLSELSEEEQKEIKEAEEKLVRTILKYVEEAAK
8,5.84,L43Y (designed binder) SMEEEVEKAAKEYEKKKKEAIEKHLEKLKAKDKEAAERFLKEYEEAAKEYAKDEAKTMSEEEAKRRAKKYKEKVLLSELSEEEQKEIKEAEEKLVRTILKYVEEAAK
9,2.48,K52Y (designed binder) SMEEEVEKAAKEYEKKKKEAIEKHLEKLKAKDKEAAERFLKELEEAAKEYAYDEAKTMSEEEAKRRAKKYKEKVLLSELSEEEQKEIKEAEEKLVRTILKYVEEAAK
10,0.79,K27G (designed binder) SMEEEVEKAAKEYEKKKKEAIEKHLEGLKAKDKEAAERFLKELEEAAKEYAKDEAKTMSEEEAKRRAKKYKEKVLLSELSEEEQKEIKEAEEKLVRTILKYVEEAAK
11,1.54,A55Q (designed binder) SMEEEVEKAAKEYEKKKKEAIEKHLEKLKAKDKEAAERFLKELEEAAKEYAKDEQKTMSEEEAKRRAKKYKEKVLLSELSEEEQKEIKEAEEKLVRTILKYVEEAAK
12,2.05,K69T (designed binder) SMEEEVEKAAKEYEKKKKEAIEKHLEKLKAKDKEAAERFLKELEEAAKEYAKDEAKTMSEEEAKRRAKTYKEKVLLSELSEEEQKEIKEAEEKLVRTILKYVEEAAK
13,1.54,R65H (designed binder) SMEEEVEKAAKEYEKKKKEAIEKHLEKLKAKDKEAAERFLKELEEAAKEYAKDEAKTMSEEEAKHRAKKYKEKVLLSELSEEEQKEIKEAEEKLVRTILKYVEEAAK
14,6.43,T57P (designed binder) SMEEEVEKAAKEYEKKKKEAIEKHLEKLKAKDKEAAERFLKELEEAAKEYAKDEAKPMSEEEAKRRAKKYKEKVLLSELSEEEQKEIKEAEEKLVRTILKYVEEAAK
15,0.653,K64M (designed binder) SMEEEVEKAAKEYEKKKKEAIEKHLEKLKAKDKEAAERFLKELEEAAKEYAKDEAKTMSEEEAMRRAKKYKEKVLLSELSEEEQKEIKEAEEKLVRTILKYVEEAAK
16,13.8,R66Y (designed binder) SMEEEVEKAAKEYEKKKKEAIEKHLEKLKAKDKEAAERFLKELEEAAKEYAKDEAKTMSEEEAKRYAKKYKEKVLLSELSEEEQKEIKEAEEKLVRTILKYVEEAAK
17,0.956,K29Y (designed binder) SMEEEVEKAAKEYEKKKKEAIEKHLEKLYAKDKEAAERFLKELEEAAKEYAKDEAKTMSEEEAKRRAKKYKEKVLLSELSEEEQKEIKEAEEKLVRTILKYVEEAAK
18,0.49,L75Q (designed binder) SMEEEVEKAAKEYEKKKKEAIEKHLEKLKAKDKEAAERFLKELEEAAKEYAKDEAKTMSEEEAKRRAKKYKEKVQLSELSEEEQKEIKEAEEKLVRTILKYVEEAAK
19,22.2,E3W (designed binder) SMWEEVEKAAKEYEKKKKEAIEKHLEKLKAKDKEAAERFLKELEEAAKEYAKDEAKTMSEEEAKRRAKKYKEKVLLSELSEEEQKEIKEAEEKLVRTILKYVEEAAK
20,0.277,A30E (designed binder) SMEEEVEKAAKEYEKKKKEAIEKHLEKLKEKDKEAAERFLKELEEAAKEYAKDEAKTMSEEEAKRRAKKYKEKVLLSELSEEEQKEIKEAEEKLVRTILKYVEEAAK
